{
  "source": "patent US7981423B2",
  "about": "“Rage fusion proteins” (Transtech Pharma, Inc., priority 2004, dated 2011)",
  "molecules": {"B1": {"name": "TTP-4000: four domain RAGE fusion protein (SEQ ID NO: 32): human RAGE amino acids 1-251 linked to CH2 and CH3 domains of human IgG (protein)", "chain": "MAAGTAVGAWALVLSLWGAVVGAQNITARIGEPLVLKCKGAPKKPPQRLEWKLNTGRTEAWKVLSPQGGGPWDSVARVLPNGSLFLPAVGIQDEGIFRCQAMNRNGKETKSNYRVRVYQIPGKPEIVDSASELTAGVPNKVGTCVSEGSYPAGTLSWHLDGKPLVPNEKGVSVKEQTRRHPETGLFTLQSELMVTPARGGDPRPTFSCSFSPGLPRHRALRTAPIQPRVWEPVPLEEVQLVVEPEGGAVAPPSVFLFPPKPKDTLMISRTPEVTCVVVDVSHEDPEVKFNWYVDGVEVHNAKTKPREEQYNSTYRVVSVLTVLHQDWLNGKEYKCKVSNKALPAPIEKTISKAKGQPREPQVYTLPPSRDELTKNQVSLTCLVKGFYPSDIAVEWESNGQPENNYKTTPPVLDSDGSFFLYSKLTVDKSRWQQGNVFSCSVMHEALHNHYTQKSLSLSPGK"}},
  "key": {"S100b (S100)": {"biological_target": "T1, S100b (S100) (Homo sapiens, UniProt P04271)", "T1 sequence (P04271 1-92)": "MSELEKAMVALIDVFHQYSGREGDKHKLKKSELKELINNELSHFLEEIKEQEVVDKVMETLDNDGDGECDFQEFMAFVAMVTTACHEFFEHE", "assay": "In vitro ligand binding ELISA, immobilized S100b", "conditions": "various dilutions of fusion protein; FIG. 7", "procedure": "(§1) For example, the RAGE fusion protein may be used in a binding assay to identify potential RAGE ligands. In one example embodiment of such a binding assay, a known RAGE ligand may coated onto a solid substrate (e.g., Maxisorb plates) at a concentration of about 5 micrograms per well, where each well contains a total volume of about 100 microliters (μL). The plates may be incubated at 4° C. overnight to allow the ligand to absorb. Alternatively, shorter incubation periods at higher temperature (e.g., room temperature) may be used. […] The fusion protein bound to the immobilized ligand may be detected in a variety of ways. […] The bound complex may be detected by adding the alkaline phosphatase substrate, para-nitrophenylphosphate (PNPP), and measuring conversion of PNPP to para-nitrophenol (PNP) as an increase in absorbance at 405 nm. […] Binding was detected by the addition of an immunodetection complex containing a monoclonal mouse anti-human IgG1 diluted 1:11,000 to a final assay concentration (FAC) of 21 ng/100 μL, a biotinylated goat anti-mouse IgG diluted 1:500, to a FAC of […], and an avidin-linked alkaline phosphatase. […] Binding of the complex to the immobilized fusion protein was quantified by measuring conversion of PNPP to para-nitrophenol (PNP) which was-measured spectrophotornetrically at 405 nm. […]"}, "amyloid-beta (Abeta)": {"biological_target": "T2, amyloid-beta (Abeta) (Homo sapiens, UniProt P05067)", "T2 construct": "Amyloid Beta (1-40) from Biosource; purchased Biosource", "assay": "In vitro ligand binding ELISA, immobilized amyloid-beta", "conditions": "various dilutions of fusion protein; FIG. 7", "procedure": "as §1"}, "[1]": {"biological_target": "immobilized known RAGE ligands (HMG1B, CML, A beta)", "assay": "Saturation binding of TTP-4000 to immobilized known RAGE ligands", "conditions": "fusion protein 0 to 360 nM; Graphpad Prizm; FIG. 15; figures not given", "procedure": "The ligands are immobilized on a microtiter plate and incubated in the presence of increasing concentrations of fusion protein from 0 to 360 nM. The fusion protein-ligand interaction is detected using a polyclonal antibody conjugated with alkaline phosphatase that is specific for the IgG portion of the fusion chimera. […] HMG1B=Ampoterin, CML=Carboxymethyl Lysine, A beta=Amyloid beta 1-40."}, "amyloid-beta (A-beta)": {"system": "amyloid-beta (A-beta)", "assay": "Competition of a RAGE ligand with immobilized amyloid-beta for binding to the fusion protein", "conditions": "TTP-4000 initial solution diluted 1:10 or 1:30; RAGE ligand 10 μM FAC", "procedure": "The fusion protein of the present invention may also be used to identify compounds having the ability to bind to RAGE.\nKnown RAGE ligands were coated onto the surface of Maxisorb plates at a concentration of 5 micrograms per well. Plates were incubated at 4° C. overnight. Following ligand incubation, plates were aspirated and a blocking buffer of 1% BSA in 50 mM imidizole buffer (pH 7.2) was added to the plates for 1 hour at room temperature. The plates were then aspirated and/or washed with wash buffer (20 mM Imidizole, 150 mM NaCl, 0.05% Tween-20, 5 mM CaCl2 and 5 mM MgCl2, pH 7.2). […] The fusion protein was added at increasing dilutions of the initial sample. The RAGE fusion protein was allowed to incubate with the immobilized ligand at 37° C. for one hour after which the plate was washed and assayed for binding of the fusion protein. Binding was detected by the addition of an immunodetection complex containing a monoclonal mouse anti-human IgG1 diluted 1:11,000 to a final assay concentration (FAC) of 21 ng/100 μL, a biotinylated goat anti-mouse IgG diluted 1:500, to a FAC of […], and an avidin-linked alkaline phosphatase. The complex was incubated with the immobilized fusion protein for one hour at room temperature after which the plate was washed and the alkaline phosphatase substrate para-nitrophenylphosphate (PNPP) was added. […]"}},
  "data": [
    {"molecule": "B1", "values": [
      {"measurement": "binding to immobilized S100b (absorbance at 405 nm)", "setting": "S100b (S100)", "result": "specifically interact"},
      {"measurement": "binding to immobilized amyloid-beta (absorbance at 405 nm)", "setting": "amyloid-beta (Abeta)", "result": "specifically interact"},
      {"measurement": "Relative Kds", "setting": "[1]", "result": "match with established literature values"},
      {"measurement": "inhibition of binding of TTP-4000 to immobilized amyloid-beta by the RAGE ligand", "setting": "amyloid-beta (A-beta)", "result": "completely inhibited"}
    ]}
  ]
}
